US7033832

Biological target: chicken N-cadherin (expressed from pMiwcN vector on LN2 mouse L cell transfectants) (chicken) (UniProt P10288)
Experiment: flow cytometry of LN2 cells stained with NCD2 and FITC secondary antibody

Chain of UniProt P10288 (P10288 165-912): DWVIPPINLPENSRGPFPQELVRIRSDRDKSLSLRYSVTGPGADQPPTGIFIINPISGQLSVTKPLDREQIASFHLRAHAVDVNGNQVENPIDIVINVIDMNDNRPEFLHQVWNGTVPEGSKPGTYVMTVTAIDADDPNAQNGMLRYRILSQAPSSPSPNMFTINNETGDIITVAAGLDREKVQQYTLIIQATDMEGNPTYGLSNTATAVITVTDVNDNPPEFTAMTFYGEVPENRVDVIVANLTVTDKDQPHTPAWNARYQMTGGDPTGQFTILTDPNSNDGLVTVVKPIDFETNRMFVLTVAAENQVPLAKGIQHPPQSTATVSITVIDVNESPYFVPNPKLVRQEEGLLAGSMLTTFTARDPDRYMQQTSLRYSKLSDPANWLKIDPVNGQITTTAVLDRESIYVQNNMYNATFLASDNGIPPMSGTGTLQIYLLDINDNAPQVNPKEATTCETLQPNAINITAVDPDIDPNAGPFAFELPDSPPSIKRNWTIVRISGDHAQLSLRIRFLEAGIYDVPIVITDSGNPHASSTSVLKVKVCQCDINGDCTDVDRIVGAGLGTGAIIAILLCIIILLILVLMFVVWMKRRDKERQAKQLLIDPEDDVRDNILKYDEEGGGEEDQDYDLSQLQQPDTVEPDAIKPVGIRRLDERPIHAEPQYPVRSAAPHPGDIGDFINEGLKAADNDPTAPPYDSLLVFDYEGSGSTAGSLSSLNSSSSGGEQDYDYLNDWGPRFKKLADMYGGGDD

mean channel fluorescence (mcf): 26.5 mcf
Substance: anti-chicken-N-Cadherin antibody (NCD2, Zymed, San Francisco, Calif.)
